First the molecules themselves.
T1: recombinant human CD123-Fc (human, UniProt P26951 19-305)
T1 construct: not shown: Fc part of CD123-Fc
T1 sequence: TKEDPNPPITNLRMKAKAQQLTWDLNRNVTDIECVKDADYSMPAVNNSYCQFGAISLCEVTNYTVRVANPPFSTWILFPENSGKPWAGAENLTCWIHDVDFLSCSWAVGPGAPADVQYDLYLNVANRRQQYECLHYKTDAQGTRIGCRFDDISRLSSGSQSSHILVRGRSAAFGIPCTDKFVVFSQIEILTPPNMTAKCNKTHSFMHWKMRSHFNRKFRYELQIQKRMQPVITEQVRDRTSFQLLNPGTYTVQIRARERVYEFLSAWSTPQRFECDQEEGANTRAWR

B1: SEQ ID NO 649 (designed binder)
chain: MGSWWEFTDRLDAIFDRLWALGGSEAELAAFEESIAIFEQDLQYYKGKGNPEVEALEYEANAIQYELEAYRHN
B2: SEQ ID NO 664 (designed binder)
chain: MGSWYEFESRLDAIVDRLWALGGSEAELAEFEYEIAKFEWELQDYKGKGNPEVEALNWEAGAIEFELYAYRHN
B3: SEQ ID NO 659 (designed binder)
chain: MGSWDEFDTRLDAIFSRLYALGGSEAELAMFEGEIAEFEGSLQHYKGKGNPEVEALDFEAHAIDEELWAYRHN
B4: SEQ ID NO 671 (designed binder)
chain: MGSWDEFSERLDAIWGRLEALGGSEAELATFEFHIAEFEHELQYYKGKGNPEVEALQGEAAAIINELYAYRHN
B5: SEQ ID NO 650 (designed binder)
chain: MGSWWEFTDRLEAIEDRLWALGGSEAELAHFEDSIAQFEQELQWYKGKGNPEVEALADEADAIESELHAYRHN
B6: SEQ ID NO 673 (designed binder)
chain: MGSWDEFDDRLEAIVDRLFALGGSEAELAMFEFEIAQFEHQLQYYKGKGNPEVEALRDEADAIWIELDAYRHN
B7: SEQ ID NO 651 (designed binder)
chain: MGSWVEFFWRLDAIEDRLWALGGSEAELANFEFEIADFEAWLQKYKGKGNPEVEALHSEADAIQLELRAYRHN
B8: SEQ ID NO 672 (designed binder)
chain: MGSWDEFWDRLDAIEDRLFALGGSEAELADFERVIAWFENDLQEYKGKGNPEVEALDNEADAIRIELHAYRHN
B9: SEQ ID NO 657 (designed binder)
chain: MGSWDEFHQRLAAIGDRLWALGGSEAELAYFEWEIATFEWDLQVYKGKGNPEVEALYFEATAIDEELMAYRHN
B10: SEQ ID NO 648 (designed binder)
chain: MGSWDEFEERLQAIEYRLWALGGSEAELAWFEEVIAQFEYDLQKYKGKGNPEVEALSTEAQAIQDELWAYRHN
B11: SEQ ID NO 669 (designed binder)
chain: MGSWNEFWERLDAIEWRLFALGGSEAELAFFELDIAWFEEELQWYKGKGNPEVEALIFEAHAITLELDAYRHN
B12: SEQ ID NO 675 (designed binder)
chain: MGSWFEFEWRLDAIENRLNALGGSEAELAWFEYHIAAFEDSLQHYKGKGNPEVEALEWEAHAIQSELQAYRHN
B13: SEQ ID NO 674 (designed binder)
chain: MGSWEEFTIRLGAIYWRLFALGGSEAELANFEWFIAEFEYELQPYKGKGNPEVEALVIEANAIDGELQAYRHN
B14: SEQ ID NO 662 (designed binder)
chain: MGSWFEFLYRLDAIEDRLWALGGSEAELAEFEQEIAKFESELQSYKGKGNPEVEALEWEAHAIDMELEAYRHN
B15: SEQ ID NO 653 (designed binder)
chain: MGSWEEFYYRLHAIDNRLWALGGSEAELAYFEWHIADFELELQDYKGKGNPEVEALSEEATAIFEELWAYRHN
B16: SEQ ID NO 666 (designed binder)
chain: MGSWGEFMDRLEAIDYRLWALGGSEAELAWFESDIAEFEQELQMYKGKGNPEVEALWDEAMAIRDELFAYRHN
B17: SEQ ID NO 670 (designed binder)
chain: MGSWYEFDARLDAIEERLYALGGSEAELAAFEFEIAGFEEALQWYKGKGNPEVEALLKEAEAITDELYAYRHN
B18: SEQ ID NO 655 (designed binder)
chain: MGSWEEFDERLWAISDRLWALGGSEAELAYFEGEIAYFEQNLQTYKGKGNPEVEALQTEALAIDTELWAYRHN
B19: SEQ ID NO 646 (designed binder)
chain: MGSWFEFEERLEAIIYRLWALGGSEAELAMFEESIAWFESDLQQYKGKGNPEVEALEYEAMAISKELKAYRHN
B20: SEQ ID NO 665 (designed binder)
chain: MGSWYEFEDRLDAILYRLLALGGSEAELAWFERDIAFFESELQWYKGKGNPEVEALEWEAMAIDDELFAYRHN
B21: SEQ ID NO 652 (designed binder)
chain: MGSWVEFYNRLDAIENRLWALGGSEAELAFFEELIAQFEFALQDYKGKGNPEVEALEDEADAIWEELMAYRHN
B22: SEQ ID NO 654 (designed binder)
chain: MGSWREFHDRLFAIDGRLWALGGSEAELANFEWDIADFEFELQDYKGKGNPEVEALSWEADAIMQELGAYRHN
B23: SEQ ID NO 663 (designed binder)
chain: MGSWLEFEDRLVAIDHRLFALGGSEAELAEFEEEIALFESYLQDYKGKGNPEVEALNWEADAIHAELYAYRHN
B24: SEQ ID NO 712 (designed binder)
chain: MGSWIEFEDRLYAIEDRLWALGGSEAELAAFEKEIAAFESELQAYKGKGNPEVEFLRYEAAEIRYWLQAYRHN
B25: SEQ ID NO 680 (designed binder)
chain: MGSWTEFDMRLDAIWDRLFALGGSEAELAAFEKEIAAFESELQAYKGKGNPEVEELREEAATIRGVLQAYRHN
B26: SEQ ID NO 682 (designed binder)
chain: B24 chain with I5V, E8R, Y12D, D16T, F55W, Y65M, W66V
B27: SEQ ID NO 684 (designed binder)
chain: B24 chain with I5T, E8V, D9W, Y12D, D16W, W19E, Y58E, Y65D
B28: SEQ ID NO 683 (designed binder)
chain: B24 chain with I5M, E8I, Y12D, D16H, Y58E, Y65M, W66Y
B29: SEQ ID NO 681 (designed binder)
chain: B24 chain with I5E, E8H, Y12M, D16T, F55W, E62D, Y65D, W66Y
B30: SEQ ID NO 676 (designed binder)
chain: B25 chain with T5Y, M9D, D12E, F19G, E55W, E59T, T62D, G65A, V66E
B31: SEQ ID NO 678 (designed binder)
chain: B25 chain with T5I, D8E, M9V, E55Y, E58D, T62D, G65Q, V66S
B32: SEQ ID NO 679 (designed binder)
chain: B25 chain with M9R, E55W, T62D, G65D, V66Y
B33: SEQ ID NO 685 (designed binder)
chain: B24 chain with I5V, E8Y, D16V, W19L, Y58Q, Y65D
B34: SEQ ID NO 658 (designed binder)
chain: MGSWVEFEYRLDAISDRLWALGGSEAELAFFENEIASFESDLQFYKGKGNPEVEALMFEAEAIDDELHAYRHN
B35: SEQ ID NO 647 (designed binder)
chain: MGSWAEFDDRLEAIEYRLHALGGSEAELAWFEEGIAGFEHALQSYKGKGNPEVEALETEAGAINEELWAYRHN
B36: SEQ ID NO 645 (designed binder)
chain: MGSWFEFEERLNAISWRLHALGGSEAELAYFEEDIAWFEDDLQFYKGKGNPEVEALENEAYAIWEELDAYRHN
B37: SEQ ID NO 656 (designed binder)
chain: MGSWEEFEQRLWAIDDRLWALGGSEAELAFFEYEIAEFEMDLQWYKGKGNPEVEALFYEAHAINEELWAYRHN
B38: SEQ ID NO 661 (designed binder)
chain: MGSWYEFFDRLDAIYDRLYALGGSEAELASFEAQIAEFEVELQSYKGKGNPEVEALEWEAWAIDEELYAYRHN
B39: SEQ ID NO 667 (designed binder)
chain: MGSWEEFDDRLDAIEHRLWALGGSEAELADFEGSIAAFESWLQVYKGKGNPEVEALEAEAEAIADELWAYRHN
B40: SEQ ID NO 668 (designed binder)
chain: MGSWYEFADRLDAIMDRLVALGGSEAELAYFEWEIAAFEEFLQMYKGKGNPEVEALDEEAEAIKDELMAYRHN
B41: SEQ ID NO 660 (designed binder)
chain: MGSWHEFDDRLDAIMSRLDALGGSEAELATFEAEIATFEFVLQLYKGKGNPEVEALLAEAYAIDWELEAYRHN

Residue numbers refer to the chain shown, from its start.

The assay deals with T1, recombinant human CD123-Fc. Briefly: phage ELISA, A450 target/A450 IgG1-Fc. A digest of the protocol:
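Phage were rescued in 96-well format with VCSM13 helper phage from individual phagemid colonies picked from panning output. Plates were coated with 1.3 microg/ml goat anti-human IgG1-Fc antibody, then 5 nM recombinant human target or IgG1-Fc, then 50 microl phage diluted 5× in ELISA blocking buffer. Binding was detected with HRP-conjugated anti-M13 antibody at 450 nm. The ELISA ratio is target over IgG1-Fc absorbance, averaged across all screened wells holding that clone.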
For orientation: In an ELISA, binding on a coated surface is turned into a signal by an enzyme label.
As to B1, the ELISA_avg was 7.5 ratio.
Turning to B2, the ELISA_avg was found to be 5.1 ratio.
In the case of B3 it was 4 ratio; in that of B4, 3.2 ratio; in that of B5, 16.6 ratio.
As to B6, the ELISA_avg was 5.6 ratio.
For B7, the ELISA_avg turned out to be 4 ratio.
For the molecule B8, the ELISA_avg turned out to be 3.9 ratio.
In the case of B9 it was 3.7 ratio; in that of B10, 3.8 ratio.
With B11, the ELISA_avg was 3 ratio.
In the case of B12 it was 3.3 ratio.
B13: the ELISA_avg amounted to 3.3 ratio.
For the molecule B14, the ELISA_avg was determined as 6.6 ratio.
Consider B15, for which the ELISA_avg turned out to be 3 ratio.
Regarding B16, the ELISA_avg came out at 4.6 ratio.
For B17, the ELISA_avg is 8.9 ratio.
In the case of B18 it was 6.5 ratio; in that of B19, 3.7 ratio.
In the case of B20, the ELISA_avg amounted to 4.3 ratio.
With B21, the ELISA_avg was 6.9 ratio.
For B22, the ELISA_avg is 5.6 ratio.
Take B23: the ELISA_avg amounted to 3.9 ratio.
For B24, the ELISA_avg stood at 4 ratio.
Take B25: the ELISA_avg was 3.1 ratio.
For the molecule B26, the ELISA_avg is 4.2 ratio.
In the case of B27 it was 4.2 ratio; in that of B28, 4.3 ratio; in that of B29, 4.3 ratio.
Consider B30, for which the ELISA_avg turned out to be 3.3 ratio.
For B31, the ELISA_avg is 4.2 ratio.
For B32, the ELISA_avg amounted to 9.2 ratio.
Consider B33, for which the ELISA_avg was found to be 5.8 ratio.
In the case of B34, the ELISA_avg is 6.5 ratio.
Turning to B35, the ELISA_avg was 5.8 ratio.
Turning to B36, the ELISA_avg amounted to 13 ratio.
For B37, the ELISA_avg was 5.7 ratio.
As for B38, the ELISA_avg is 4.7 ratio.
On to B39, for which the ELISA_avg was found to be 4 ratio.
In the case of B40, the ELISA_avg came out at 3.3 ratio.
With B41, the ELISA_avg was 7.7 ratio.
